system: RAJI cells; assay: JNG assay, co-culture with RAJI cells; assay type: cell-based; conditions: JNG cells expressing construct, co-culture with Raji
Procedure: Cellular supernatant is collected and assayed for the induction of cytokines (e.g., IL2).
JNG (Jurkat cells expressing EGFP under an NFAT promoter) were infected with lentiviral vectors encoding different single chain and multi-chain SARs by spinfection in the presence of 8 µg/ml of Polybrene® (Sigma, Catalog no. H9268). The Jurkat-NFAT-GFP cells are engineered in such a way that the IL-2 promoter, which carries NFAT binding sites, is cloned upstream of the GFP gene. These cells have been used to study signaling via TCR and CAR. The different SARs were stably expressed in Jurkat NFAT-GFP cells by lentiviral mediated gene transfer, followed by selection with puromycin or blasticidin. No drug selection was used in case the construct lacked an antibiotic resistance gene. The SAR-expressing Jurkat-NFAT-GFP cells were cocultured with the target cells at E:T ratio of approximately 1:2 for approximately 4 hours to 18 hours. When the interaction between SIRs and their target antigen results in activation of the NFAT pathway, GFP expression is induced. […] GFP expression was monitored by FACS analysis. The Jurkat-NFAT-GFP (parental) cells were used as control. The structure of different constructs can be determined based on their names. […] The sequence of the other constructs in the table can be similarly determined from their names and by referring to the different Tables of this disclosure that provide the names and SEQ ID NO of the different modules. Alternatively, the composition and modular architecture of the different SAR constructs can be determined from their sequences by bioinformatics tools, including using nucleic acid and amino acids homology searches. A SAR is considered positive in the assay in case the SAR expressing Jurkat-NFAT-GFP cells show greater % GFP positive cells when cultured with the target cell line as compared to parental Jurkat-NFAT-GFP cells. […] In general, the number +/-, +, 2+, 3+, 4+, 5+ refer to approximately 5%, 10%, 20%, 30%, 40% and 50% GFP positive cells. The % of GFP induction in the above assay is dependent not only the relative strength of the SAR but also, among other factors, on the relative level of expression of the SAR in the JNG cells and the relative level of expression of the target antigen in the target cell line. To control for the difference in gene transduction efficiency of the different SAR constructs, the experiment was conducted with JNG cells transduced with SAR constructs co-expressing a drug resistance gene (e.g., puromycin or PAC) followed by drug selection to generate a stable population of SAR-expressing cells. It is to be noted that the drug resistance gene (e.g., PAC) in the SAR constructs is optional and in vivo studies were conducted with SAR constructs lacking the PAC gene.

Molecule | NFAT-GFP ASSAY: Raji
21993 (protein) MALPVTALLLPLALLLHAARPQLQLQESGPGLVKPSETLSLTCTVSGDSISSGDYYWGWIRQPPGKGLEWIGHIYYSGVTYYNPSLKSRVTISVDTSRNQFSLKLSSVTAADTAVYYCTREDSSNWRSRGQGTLVTVSSLEDLKNVFPPEVAVFEPSEAEISHTQKATLVCLATGFYPDHVELSWWVNGKEVHSGVCTDPQPLKEQPALNDSRYCLSSRLRVSATFWQNPRNHFRCQVQFYGLSENDEWTQDRAKPVTQIVSAEAWGRADCGFTSESYQQGVLSATILYEILLGKATLYAVLVSALVLMAMVKRKDSRGRAKRSGSGATNFSLLKQAGDVEENPGPTSMDWIWRILFLVGAATGAHSFEQLQLQESGPGLVKPSETLSLTCTVSGGSISSGDYYWGWIRQPPGKGLEWIGHIYYSGATYYNPSLKSRVTISVDTSRNQFSLKLSSVTAADTAVYYCTRDDSSNWRSRGQGTLVTVSSTRIQNPDPAVYQLRDSKSSDKSVCLFTDFDSQTNVSQSKDSDVYITDKCVLDMRSMDFKSNSAVAWSNKSDFACANAFNNSIIPEDTFFPSPESSCDVKLVEKSFETDTNLNFQNLSVIGFRILLLKVAGFNLLMTLRLWSSRAKRSGSGVKQTLNFDLLKLAGDVESNPGPSRGHMTEYKPTVRLATRDDVPRAVRTLAAAFADYPATRHTVDPDRHIERVTELQELFLTRVGLDIGKVWVADDGAAVAVWTTPESVEAGAVFAEIGPRMAELSGSRLAAQQQMEGLLAPHRPKEPAWFLATVGVSPDHQGKGLGSAVVLPGVEAAERAGVPAFLETSAPRNLPFYERLGFTVTADVEVPEGPRTWCMTRKPGA | Raji (+/-) (refer to approximately 5%, 10%, 20%, 30%, 40% and 50% GFP positive cells)
22006 (protein) MALPVTALLLPLALLLHAARPLEGKPIPNPLLGLDSTGSGEDLKNVFPPEVAVFEPSKAEIAHTQKATLVCLATGFYPDHVELSWWVNGKEVHSGVCTDPQPLKEQPALNDSRYCLSSRLRVSATFWQNPRNHFRCQVQFYGLSENDEWTQDRAKPVTQIVSAEAWGRADCGITSASYHQGVLSATILYEILLGKATLYAVLVSALVLMAMVKRKDSRGRAKRSGSGATNFSLLKQAGDVEENPGPTSTMALPVTALLLPLALLLHAARPEVQLVESGGGLVQPGGSLRLSCTFSGGTFSSYTMGWFRQAPGKEREFVAEVRWGGVTTYSNSLKDRFSISEDSVKNAVYLQMNSLKPEDTAVYYCAAVRQMYMTVVPDYWGQGTLVTVSSTREQKLISEEDGSGIQNPDPAVYQLRDSKSSDKSVCLFTDFDSQTNVSQSKDSDVYITDKCVLDMRSMDFKSNSAVAWSNKSDFACANAFNNSIIPEDTFFPSSDVPCDVKLVEKSFETDTNLNFQNLSVIGFRILLLKVAGFNLLMTLRLWSSRAKRSGSGVKQTLNFDLLKLAGDVESNPGPSRGHMTEYKPTVRLATRDDVPRAVRTLAAAFADYPATRHTVDPDRHIERVTELQELFLTRVGLDIGKVWVADDGAAVAVWTTPESVEAGAVFAEIGPRMAELSGSRLAAQQQMEGLLAPHRPKEPAWFLATVGVSPDHQGKGLGSAVVLPGVEAAERAGVPAFLETSAPRNLPFYERLGFTVTADVEVPEGPRTWCMTRKPGA | + (refer to approximately 5%, 10%, 20%, 30%, 40% and 50% GFP positive cells)
22001 (protein) MALPVTALLLPLALLLHAARPQLQLQESGPGLVKPSETLSLTCTVSGDSISSGDYYWGWIRQPPGKGLEWIGHIYYSGVTYYNPSLKSRVTISVDTSRNQFSLKLSSVTAADTAVYYCTREDSSNWRSRGQGTLVTVSSLEPGGGGSPEDLKNVFPPEVAVFEPSEAEISHTQKATLVCLATGFYPDHVELSWWVNGKEVHSGVCTDPQPLKEQPALNDSRYCLSSRLRVSATFWQNPRNHFRCQVQFYGLSENDEWTQDRAKPVTQIVSAEAWGRADCGFTSESYQQGVLSATILYEILLGKATLYAVLVSALVLMAMVKRKDSRGRAKRSGSGATNFSLLKQAGDVEENPGPTSMDWIWRILFLVGAATGAHSFEVQLLESGGGLIQPGGSLRLSCAASGFTFSSHAMTWVRQAPGKGLEWVSAISGSGDYTHYADSVKGRFTISRDNSKNTVYLQMNSLRAEDSAVYYCAKDEDGGSLLGHRGQGTLVTVSSTRIQNPDPAVYQLRDSKSSDKSVCLFTDFDSQTNVSQSKDSDVYITDKCVLDMRSMDFKSNSAVAWSNKSDFACANAFNNSIIPEDTFFPSPESSCDVKLVEKSFETDTNLNFQNLSVIGFRILLLKVAGFNLLMTLRLWSSRAKRSGSGVKQTLNFDLLKLAGDVESNPGPSRGHMTEYKPTVRLATRDDVPRAVRTLAAAFADYPATRHTVDPDRHIERVTELQELFLTRVGLDIGKVWVADDGAAVAVWTTPESVEAGAVFAEIGPRMAELSGSRLAAQQQMEGLLAPHRPKEPAWFLATVGVSPDHQGKGLGSAVVLPGVEAAERAGVPAFLETSAPRNLPFYERLGFTVTADVEVPEGPRTWCMTRKPGA | +/- (refer to approximately 5%, 10%, 20%, 30%, 40% and 50% GFP positive cells)
21995 (protein) MALPVTALLLPLALLLHAARPQLQLQESGPGLVKPSETLSLTCTVSGDSISSGDYYWGWIRQPPGKGLEWIGHIYYSGVTYYNPSLKSRVTISVDTSRNQFSLKLSSVTAADTAVYYCTREDSSNWRSRGQGTLVTVSSLEDLKNVFPPEVAVFEPSEAEISHTQKATLVCLATGFYPDHVELSWWVNGKEVHSGVCTDPQPLKEQPALNDSRYCLSSRLRVSATFWQNPRNHFRCQVQFYGLSENDEWTQDRAKPVTQIVSAEAWGRADCGFTSESYQQGVLSATILYEILLGKATLYAVLVSALVLMAMVKRKDSRGRAKRSGSGATNFSLLKQAGDVEENPGPTSMDWIWRILFLVGAATGAHSFEVQLLESGGGLVQPGGSLRLSCAASGFIFSIYAMSWVRQAPGKGLEWVSGISGSGVNTYYADSVKGRFIISRDNSRNTVYLQMNSLRADDTAVYHCANGKGWDGNTWYEDYRGQGTLVTVSSTRIQNPDPAVYQLRDSKSSDKSVCLFTDFDSQTNVSQSKDSDVYITDKCVLDMRSMDFKSNSAVAWSNKSDFACANAFNNSIIPEDTFFPSPESSCDVKLVEKSFETDTNLNFQNLSVIGFRILLLKVAGFNLLMTLRLWSSRAKRSGSGVKQTLNFDLLKLAGDVESNPGPSRGHMTEYKPTVRLATRDDVPRAVRTLAAAFADYPATRHTVDPDRHIERVTELQELFLTRVGLDIGKVWVADDGAAVAVWTTPESVEAGAVFAEIGPRMAELSGSRLAAQQQMEGLLAPHRPKEPAWFLATVGVSPDHQGKGLGSAVVLPGVEAAERAGVPAFLETSAPRNLPFYERLGFTVTADVEVPEGPRTWCMTRKPGA | + (refer to approximately 5%, 10%, 20%, 30%, 40% and 50% GFP positive cells)
22008 (protein) MALPVTALLLPLALLLHAARPQLQLQESGPGLVKPSETLSLTCTVSGDSISSGDYYWGWIRQPPGKGLEWIGHIYYSGVTYYNPSLKSRVTISVDTSRNQFSLKLSSVTAADTAVYYCTREDSSNWRSRGQGTLVTVSSLEDLKNVFPPEVAVFEPSEAEISHTQKATLVCLATGFYPDHVELSWWVNGKEVHSGVCTDPQPLKEQPALNDSRYCLSSRLRVSATFWQNPRNHFRCQVQFYGLSENDEWTQDRAKPVTQIVSAEAWGRADCGFTSESYQQGVLSATILYEILLGKATLYAVLVSALVLMAMVKRKDSRGRAKRSGSGATNFSLLKQAGDVEENPGPTSMDWIWRILFLVGAATGAHSFEVQLLESGGGLVQPGGSLRLSCAASGFIFSSYAMSWVRQAPGKGQEWVSGVSGTGVNTYYADSVKGRFTISRDNSKNTLYLQMNSLRAEDTAVYYCASGKGWDSGSWYEDYRGQGTLVTVSSTRIQNPDPAVYQLRDSKSSDKSVCLFTDFDSQTNVSQSKDSDVYITDKCVLDMRSMDFKSNSAVAWSNKSDFACANAFNNSIIPEDTFFPSPESSCDVKLVEKSFETDTNLNFQNLSVIGFRILLLKVAGFNLLMTLRLWSSRAKRSGSGVKQTLNFDLLKLAGDVESNPGPSRGHMTEYKPTVRLATRDDVPRAVRTLAAAFADYPATRHTVDPDRHIERVTELQELFLTRVGLDIGKVWVADDGAAVAVWTTPESVEAGAVFAEIGPRMAELSGSRLAAQQQMEGLLAPHRPKEPAWFLATVGVSPDHQGKGLGSAVVLPGVEAAERAGVPAFLETSAPRNLPFYERLGFTVTADVEVPEGPRTWCMTRKPGA | +/- (refer to approximately 5%, 10%, 20%, 30%, 40% and 50% GFP positive cells)
